Test results reported in US20210269532A1.

Legend:
[1] = molecular target: chimeric mouse AXL ECD with human Ig1 domain, His-tagged (human; mouse) (UniProt Q00993); test: BLI (Octet QK384), His-tagged protein captured on Anti-Penta-HIS sensors, antibody at saturating conditions; white cell
[2] = molecular target: His-tagged human AXL extracellular domain (recombinant) (human) (UniProt P30530); test: SPR classical sandwich assay (IBIS MX96): 100 nM analyte over AXL-His ECD held by surface-captured 22883; grey cell = blocked
Sequence of His-tagged human AXL extracellular domain (recombinant) (human) (P30530 26-451): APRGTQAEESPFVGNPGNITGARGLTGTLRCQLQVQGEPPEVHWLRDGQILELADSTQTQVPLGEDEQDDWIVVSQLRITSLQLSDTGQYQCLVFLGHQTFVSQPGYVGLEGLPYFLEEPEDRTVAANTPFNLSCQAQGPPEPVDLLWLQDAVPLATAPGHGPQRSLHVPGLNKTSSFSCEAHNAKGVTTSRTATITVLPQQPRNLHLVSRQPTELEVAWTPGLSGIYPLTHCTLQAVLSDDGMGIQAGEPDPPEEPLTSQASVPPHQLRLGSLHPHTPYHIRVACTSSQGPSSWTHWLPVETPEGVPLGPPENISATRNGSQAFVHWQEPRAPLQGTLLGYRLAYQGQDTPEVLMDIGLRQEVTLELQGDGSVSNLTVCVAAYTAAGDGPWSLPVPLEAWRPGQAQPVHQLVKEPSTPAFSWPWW

[3] = molecular target: His-tagged human AXL extracellular domain (recombinant) (human) (UniProt P30530); test: SPR classical sandwich assay (IBIS MX96): 100 nM analyte over AXL-His ECD held by surface-captured 22995; white cell = sandwiching
[4] = molecular target: His-tagged human AXL extracellular domain (recombinant) (human) (UniProt P30530); test: SPR classical sandwich assay (IBIS MX96): 100 nM analyte over AXL-His ECD held by surface-captured 23203-1; white cell = sandwiching
[5] = molecular target: His-tagged human AXL extracellular domain (recombinant) (human) (UniProt P30530); test: SPR classical sandwich assay (IBIS MX96): 100 nM analyte over AXL-His ECD held by surface-captured 10G5 analogue; grey cell = blocked (self)
[6] = molecular target: His-tagged human AXL extracellular domain (recombinant) (human) (UniProt P30530); test: SPR classical sandwich assay (IBIS MX96): 100 nM analyte over AXL-His ECD held by the surface-captured Control antibody (f2); white cell = sandwiching
[7] = molecular target: His-tagged human AXL extracellular domain (recombinant) (human) (UniProt P30530); test: BLI (Octet QK384), His-tagged protein captured on Anti-Penta-HIS sensors, antibody at saturating conditions; row HuAXL_ECD, the reference of the normalization
[8] = molecular target: His-tagged human AXL extracellular domain (recombinant) (human) (UniProt P30530); test: SPR classical sandwich assay (IBIS MX96): 100 nM analyte over AXL-His ECD held by surface-captured YW327.6S2 IgG1-LALA analogue; white cell = sandwiching

Sequence of chimeric mouse AXL ECD with human Ig1 domain, His-tagged (human; mouse) (Q00993 other isoform, or with tags, fused parts or gaps mutant limits assumed): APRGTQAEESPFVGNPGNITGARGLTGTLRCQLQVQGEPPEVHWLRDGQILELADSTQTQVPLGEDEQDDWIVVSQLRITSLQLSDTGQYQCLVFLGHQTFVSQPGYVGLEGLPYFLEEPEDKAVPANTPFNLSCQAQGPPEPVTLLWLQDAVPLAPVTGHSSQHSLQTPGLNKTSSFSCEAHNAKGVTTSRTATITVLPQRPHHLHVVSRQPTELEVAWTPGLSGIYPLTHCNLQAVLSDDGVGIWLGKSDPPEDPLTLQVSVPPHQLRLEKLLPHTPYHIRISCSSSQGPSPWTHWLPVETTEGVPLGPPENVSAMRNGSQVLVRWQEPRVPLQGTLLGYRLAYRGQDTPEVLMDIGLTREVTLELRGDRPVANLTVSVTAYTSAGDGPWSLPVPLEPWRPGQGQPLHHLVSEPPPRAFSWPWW

B1: 10G5 analogue (BerGenBio) (antibody, from another filing, V domains shown)
VH: QVQLQQSGAELVRPGASVKLSCKASGYSFTDFYINWVRQRPGQGLEWIARIFPGGDNTYYNEKFKGKATLTAEESSSTAYIQLSSLTSEDSAVYFCARRGLYYAMDYWGQGISVTVSS
VL: DVLMTQTPLSLPVSLGDQASISCRSSQSLVHSNGIPYLHWYLQKPGQSPKLLIYRVSNRFSGVPDRFSGSGSGTDFTLKISRVEAEDLGVYFCSQGTHVPPTFGGGTKLEIK
BLI response (nm) normalized to full-length human AXL-ECD [1]: 0.9 | normalized SPR sandwich response [2]: -0.1 | normalized SPR sandwich response [3]: 1.3 | normalized SPR sandwich response [4]: 1.2 | normalized SPR sandwich response [5]: -0.2 | normalized SPR sandwich response [6]: 1.2 | BLI response (nm) normalized to full-length human AXL-ECD [7]: 1 | normalized SPR sandwich response [8]: 1.6
